{"source": "patent US20140056902A1", "about": "(Kyowa Kirin, published 2014)", "binders": {"B1": {"name": "human mature dimer BMP10 recombinant protein (manufactured by R&D systems, Cat#2926-BP) (ligand)", "chain": "NAKGNYCKRTPLYIDFKEIGWDSWIIAPPGYEAYECRGVCNYPLAEHLTPTKHAIIQALVHLKNSQKASKACCVPTKLEPISILYLDKGVVTYKFKYEGMAVSECGCR"}, "B2": {"name": "3B7-3-3 antibody (antibody, mouse IgG1, V domains shown)", "VH": "EVQLQQSRPELVKPGASVKISCKASDYSFTDYYMNWVKQSPDKSLEWIGEISPSSGGTTYNQKFKAKATLTVDKSSSTAYMQLKSLTSEDSAVYYCATRGAFYFDYWGQGTALTVSS", "VL": "QIVLTQSPALMSAFPGEKVTMTCSASSSVSYMYWYQQKPRSSPKPWIYLTSNLASGVPTRFSGSGSGTSYSLTISSMEAEDAATYFCQQWSSNPRTFGGGTKLEIKR", "notes": "Mouse monoclonal from a BMP9 KO mouse hybridoma; mouse IgG1 heavy chain, kappa light chain"}, "B3": {"name": "10D5-2-3 antibody-humanized antibody HV0LV3 (antibody, V domains shown)", "VH": "EVQLVESGGGLVQPGGSLRLSCAASGFTFSNYWMNWVRQAPGKGLEWVGHIRLKSDNYATHYAESVRGRFTISRDDSKNSLYLQMNSLKTEDTAVYYCARGSNYVFAFWGQGTLVTVSS", "VL": "DIVMTQSPDSLAVSLGERATINCRASESVDNYGISFMNWFQQKPGQPPKLLIYAASNQGSGVPDRFSGSGSGTDFTLTISPLQAEDVAVYFCQQSKEVPWTFGQGTKLEIK", "notes": "Expressed from pKANTEX93"}, "B4": {"name": "10D5-2-3 antibody-humanized antibody HV0LV4 (antibody, V domains shown)", "VH": "B3 VH", "VL": "B3 VL with M4L, F40Y, L82M, V89M, F91Y", "notes": "Expressed from pKANTEX93"}, "B5": {"name": "6D10-1-1 antibody (antibody, mouse IgG1, V domains shown)", "VH": "QVQLQQSGAELVRPGTSVKVSCKASGYAFTNYLMEWIKQRPGQGLEWIGVIHPGIGVTNYNEKFKGKATLTADISSSTAYMQLSSLTSEDSAVYFCARRANWDLYYFDYWGQGTTLTVSS", "VL": "DIQMTQITSSLSASLGDRVTISCSASQDISNYLNWYQQKPDGTVKLLIYYTSSLHSEVPSRFSGSGSGTDYSLTISNLEPEDIATYYCQQYINLPLTFGAGTKLELKR", "notes": "Mouse monoclonal from a BMP9 KO mouse hybridoma; also called 610D-1-1 antibody"}}, "key": {"[1]": {"target": "T1, full-length human ALK1 expressed on the reporter cell line ALK1/p(GCCG)12-Luc/HepG2(38.5) (human, UniProt P37023 22-503)", "T1 sequence (P37023 22-503 limits assumed)": "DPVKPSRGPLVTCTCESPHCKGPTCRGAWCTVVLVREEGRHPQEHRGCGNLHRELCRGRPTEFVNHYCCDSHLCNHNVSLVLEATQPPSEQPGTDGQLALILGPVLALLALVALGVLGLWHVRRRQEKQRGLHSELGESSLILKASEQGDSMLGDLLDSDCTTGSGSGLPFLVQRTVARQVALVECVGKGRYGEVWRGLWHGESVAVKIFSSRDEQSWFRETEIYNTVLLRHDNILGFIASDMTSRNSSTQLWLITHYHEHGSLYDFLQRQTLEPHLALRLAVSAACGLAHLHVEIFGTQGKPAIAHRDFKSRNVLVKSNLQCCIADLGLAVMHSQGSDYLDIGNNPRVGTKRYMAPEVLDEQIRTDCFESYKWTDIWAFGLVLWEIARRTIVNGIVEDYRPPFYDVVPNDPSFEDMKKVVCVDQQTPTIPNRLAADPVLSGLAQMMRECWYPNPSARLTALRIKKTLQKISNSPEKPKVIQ", "assay": "cell-based or functional assay"}, "[2]": {"target": "T1, full-length human ALK1 expressed on the …", "assay": "cell-based or functional assay", "remark": "listed apart in the source"}, "[3]": {"target": "B1", "assay": "ELISA, immobilized antigen (100 ng/mL coat), biotin-labeled antibody at 100 ng/mL, absorbance 450-570 nm", "description": "To examine specificity of the obtained antibodies to human BMP9, their binding ability to human BMP9 and human BMP10 having the highest homology to human BMP9 was tested by comparison. First, 100 ng/mL of human mature dimer BMP9 recombinant protein (manufactured by R&D systems, Cat#3209-BP), or human mature dimer BMP10 recombinant protein (manufactured by R&D systems, Cat#2926-BP) prepared in 50 mmol/L NaHCO₃ buffer (manufactured by Wako, Cat#191-01305) was added to a 96-well plate for ELISA (F96 MAXISORP NUNC-IMMUNO PLATE, manufactured by Thermo Fisher Scientific, Cat#442404) at an amount of 50 μL/well, and left at 4° C. overnight for adsorption.\nSubsequently, 6D10-1-1 antibody, 10D5-2-3 antibody, 3B7-3-3 antibody, R&D antibody, or anti-BMP10 antibody (manufactured by R&D, Cat#MAB2926) that was labeled with biotin using a Biotin Labeling Kit-NH2 (manufactured by COSMO BIO, Cat#LK03) was prepared at a concentration of 100 ng/mL using 10% Super Block in TBST which was prepared by mixing SuperBlock and TBST at a ratio of 1:9. 50 μL/well thereof was aliquoted as a primary antibody, and left at room temperature for 1 hour.\n(§1) The plate was washed with TBST five times, and 50 μL/well of the TMB substrate reagent (TMB+ Substrate-Chromogen, manufactured by Dako, Cat#S1599) was added for color-development. When proper color was developed, 50 μL/well of the 1 N sulfuric acid solution (manufactured by Wako, Cat#192-04755) was added, and absorbance (450 nm-570 nm) at a sample wavelength of 450 nm and at a reference wavelength of 570 nm was determined using a plate reader (manufactured by Spectra Max, Molecular Devices)."}, "[4]": {"target": "T2, human mature dimer BMP9 recombinant protein (manufactured by R&D systems, Cat#3209-BP) (human, UniProt Q9UK05 320-429)", "T2 construct": "Bought protein; also called human BMP9; human BMP9 recombinant protein (manufactured by R&D systems)", "T2 sequence": "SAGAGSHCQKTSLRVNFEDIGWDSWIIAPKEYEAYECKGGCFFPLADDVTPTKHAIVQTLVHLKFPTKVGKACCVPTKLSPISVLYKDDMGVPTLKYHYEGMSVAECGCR", "assay": "SPR (Biacore T100), antibody captured on anti-human IgG, human BMP9 as analyte", "description": "For the purpose of comparing binding activity to human BMP9 between c10D5-2-3 antibody and 22 types of 10D5-2-3 antibody-humanized antibodies obtained in Example 22-7, binding activity to human BMP9 recombinant protein (manufactured by R&D systems) was measured by surface plasmon resonance (SPR) using a BiacoreT100 instrument (manufactured by GE Healthcare bioscience).\nAnti-human IgG antibody was immobilized onto a CM5 sensor chip (manufactured by GE Healthcare bioscience) using a Human Antibody Capture Kit (manufactured by GE Healthcare bioscience) in accordance with the accompanying protocol. 0.4 μg/mL of c10D5-2-3 antibody or each humanized antibody was applied to the flow cell onto which anti-human IgG antibody was immobilized, at a flow rate of 10 μL/min for 2 minutes.\nSubsequently, human BMP9 recombinant protein (manufactured by R&D systems, Cat#3209-BP) was subjected to 2-fold serial dilution starting from […] to give 5 concentrations, and applied at a flow rate of 10 μL/min, and association was monitored over 3 minutes and dissociation over 3 minutes at a flow of 10 μL/min. The sensorgram thus obtained was analyzed by BiaEvaluation Software (manufactured by GE Healthcare bioscience) to calculate the rate constant of each antibody."}, "[5]": {"target": "T3, human BMP9 recombinant protein prepared according to Example 12 of WO 2010/126169 (N-terminal His-tagged … (human, UniProt Q9UK05 320-429; Q9UK05 23-319)", "T3 construct": "not shown: N-terminal His tag", "T3 sequence 1": "T2 sequence", "T3 sequence 2": "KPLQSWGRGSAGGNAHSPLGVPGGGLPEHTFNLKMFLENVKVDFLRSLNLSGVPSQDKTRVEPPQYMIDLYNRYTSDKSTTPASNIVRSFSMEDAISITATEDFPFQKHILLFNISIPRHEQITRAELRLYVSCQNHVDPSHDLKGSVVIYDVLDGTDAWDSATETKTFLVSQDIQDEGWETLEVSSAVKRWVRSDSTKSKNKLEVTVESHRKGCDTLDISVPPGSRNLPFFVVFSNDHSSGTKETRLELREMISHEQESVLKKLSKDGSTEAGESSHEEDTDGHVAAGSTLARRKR", "assay": "SPR (BIAcore 2000), antibody captured on anti-mouse IgG, human BMP9 recombinant protein as analyte, single cycle kinetics", "excerpt": "The binding activity (affinity) of the obtained antibodies to human BMP9 recombinant protein was examined using BIAcore 2000 (manufactured by GE Healthcare). After anti-mouse IgG antibody was immobilized onto a CM5 sensor chip using a Mouse Antibody Capture Kit (manufactured by GE Healthcare), anti-human BMP9 antibody was coupled to an RU value of 700-1100.\nThereafter, 0.152 nmol/L, 0.457 nmol/L, 1.37 nmol/L, 4.1 nmol/L, 12.3 nmol/L, 36.89 nmol/L, 110.67 nmol/L, and […] of the human BMP9 recombinant protein prepared in Example 7-1 were prepared by using an HBS-EP solution (manufactured by GE Healthcare) and added as analytes, and binding affinity was measured.\nBased on the obtained values, the dissociation constant (Kd value) was calculated by single cycle kinetics (BIAevaluation Software ver. 3, manufactured by GE Healthcare)."}, "[6]": {"target": "T2, human mature dimer BMP9 recombinant …", "assay": "ELISA, immobilized human BMP9 (100 ng/mL coat), biotin-labeled antibody titrated, absorbance 450-570 nm; unit ng/mL from the legend", "description": "First, 100 ng/mL of human mature dimer BMP9 recombinant protein (manufactured by R&D systems, Cat#3209-BP) prepared in 50 mmol/L NaHCO₃ buffer was added to a 96-well plate for ELISA (F96 MAXISORP NUNC-IMMUNO PLATE, manufactured by Thermo Fisher Scientific, Cat#439454) at an amount of 50 μL/well, and left at 4° C. overnight for adsorption.\nAfter removal of the reagent for immobilization, 200 μL/well of SuperBlock (manufactured by Thermo […], Cat#37535) was added, and left at room temperature for 1 hour for blocking, and washing was carried out using TBST three times. Subsequently, the biotin-labeled 6D10-1-1 antibody, 10D5-2-3 antibody, 3B7-3-3 antibody or R&D antibody was prepared at a concentration of 1, 5, 20, 100, or 300 ng/mL using 10% Super Block in TBST. Each 50 μL/well thereof was aliquoted, and left at room temperature for 1 hour.\nas §1"}, "[7]": {"target": "T4, N-terminal His-tagged BMP10 expressed by the pLN1V5_human BMP10 vector (human, UniProt O95393 22-424)", "T4 sequence": "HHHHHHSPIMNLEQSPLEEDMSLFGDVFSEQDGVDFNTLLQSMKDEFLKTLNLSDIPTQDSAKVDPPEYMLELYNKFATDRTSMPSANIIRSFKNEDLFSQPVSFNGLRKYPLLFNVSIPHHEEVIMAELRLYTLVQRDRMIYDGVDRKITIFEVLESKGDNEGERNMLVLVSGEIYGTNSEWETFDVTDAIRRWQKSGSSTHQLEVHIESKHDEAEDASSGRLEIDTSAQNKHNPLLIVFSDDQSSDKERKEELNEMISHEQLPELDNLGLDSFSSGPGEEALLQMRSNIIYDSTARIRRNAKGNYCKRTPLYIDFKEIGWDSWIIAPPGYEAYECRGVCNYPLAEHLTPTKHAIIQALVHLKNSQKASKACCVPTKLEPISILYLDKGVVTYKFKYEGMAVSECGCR", "assay": "antigen-immobilized ELISA, antigen coated at 3 ug/mL", "description": "Antigen immobilized ELISA of the obtained antibodies was performed using the chimeric protein. 3 μg/mL of the recombinant human BMP9, BMP10, and BMP9/10 chimeric proteins of Example 20-2 in 50 mmol/L NaHCO₃ buffer were added to a 96-well plate for ELISA (F96 MAXISORP NUNC-IMMUNO PLATE, manufactured by Thermo Fisher Scientific, Cat#442404) at an amount of 50 μL/well, and left at 4° C. overnight for adsorption.\nAfter removal of the reagent for immobilization, 200 μL/well of 1% BSA-PBS was added, and left at room temperature for 1 hour for blocking, and washing was carried out using PBST five times. […]\nThe plate was washed with PBST ten times, and 50 μL/well of the TMB chromogen reagent (TMB+Substrate-Chromogen, manufactured by Dako, Cat#S 1599) was added for chromogenic reaction. When the intensity of chromogenic reaction became strong enough, 50 μL/well of a 1 N sulfuric acid solution (manufactured by Wako, Cat#192-04755) was added, and absorbance at 450 nm and 570 nm was determined using a Multiskan Spectrum (manufactured by Thermo Labsystems)."}}, "note": "Numbering of substitutions follows the chain as printed."}
{"binder": "B1", "values": [{"measurement": "EC50 (read off the curve); luciferase activity (RLU) of human ALK1 reporter cells, with 3 ug/mL 10D5-2-3 antibody alone (filled square)", "setting": "[1]", "result": "~0.3", "unit": "ng/mL"}, {"measurement": "EC50 (read off the curve); luciferase activity (RLU) of human ALK1 reporter cells, with the complex of 3 ug/mL 10D5-2-3 antibody and 2 ng/mL human BMP9 (open triangle)", "setting": "[1]", "result": "~0.3", "unit": "ng/mL"}, {"measurement": "EC50 (read off the curve); luciferase activity (RLU) of human ALK1 reporter cells, with the complex of 3 ug/mL 10D5-2-3 antibody and 10 ng/mL human BMP9 (open circle)", "setting": "[1]", "result": "~0.2", "unit": "ng/mL"}, {"measurement": "EC50 (read off the curve); luciferase activity (RLU) of human ALK1 reporter cells, with 3 ug/mL 6D10-1-1 antibody alone (filled square)", "setting": "[2]", "result": "~0.4", "unit": "ng/mL"}]}
{"binder": "B2", "values": [{"measurement": "binding result", "setting": "[3]", "result": "no binding (tested: 100 ng/mL)"}]}
{"binder": "B3", "values": [{"measurement": "binding result", "setting": "[4]", "result": "no binding (tested: human BMP9 up to 1 nM)"}]}
{"binder": "B4", "values": [{"measurement": "binding result", "setting": "[4]", "result": "no binding (tested: human BMP9 up to 1 nM)"}]}
{"binder": "B5", "values": [{"measurement": "Kd", "setting": "[5]", "result": 0.0297, "unit": "nM"}, {"measurement": "Relative binding affinity (to R&D antibody)", "setting": "[5]", "result": 20.7, "unit": "fold"}, {"measurement": "EC50 (read off the curve)", "setting": "[6]", "result": "~8", "unit": "ng/mL"}, {"measurement": "binding result", "setting": "[3]", "result": "no binding (tested: 100 ng/mL)"}, {"measurement": "binding result", "setting": "[7]", "result": "no binding"}]}
